Test results: paper PMC9350882, “Molecular and Biochemical Differences of the Tandem and Cold-Adapted PET Hydrolases Ple628 and Ple629, Isolated From a Marine Microbial Consortium” (Frontiers in Bioengineering and Biotechnology, 2022)

Tested on: CC(=O)Oc1ccc([N+](=O)[O-])cc1
Assay: purified protein
Type: biochemical, Marinobacter sp.
Details: PBS pH 7.0, 20 °C, 0.1-2.5 mM substrate

Substance | Km | kcat
Ple628 (Marinobacter sp.) | 1800 µM | 4.498 s⁻¹
Ple629 (Marinobacter sp.) | 2100 µM | 4.742 s⁻¹
